Biological target: Glypican-3 (GPC3) (UniProt P51654 25-554)
Assay: electrochemical sandwich aptasensor (DPV silver stripping; EIS); GPC3 captured by GPC3 antibody on Au NPs@rGO/SPE; aptamer on H-rGO-Pd NPs; response 0.01-100 ug/mL, LOD 3.30 ng/mL (not a Kd); PBS 0.1 mol/L as electrolyte; probe in Tris-EDTA buffer; 5.0 umol/L GPC3Apt; response time 30 min; incubation temperature tested 4-37 C; pH not given in material
Settings: protein: commercial; label: adsorbed on H-rGO-Pd NPs nanozyme (signal probe)

Chain of Glypican-3 (GPC3) (P51654 25-554): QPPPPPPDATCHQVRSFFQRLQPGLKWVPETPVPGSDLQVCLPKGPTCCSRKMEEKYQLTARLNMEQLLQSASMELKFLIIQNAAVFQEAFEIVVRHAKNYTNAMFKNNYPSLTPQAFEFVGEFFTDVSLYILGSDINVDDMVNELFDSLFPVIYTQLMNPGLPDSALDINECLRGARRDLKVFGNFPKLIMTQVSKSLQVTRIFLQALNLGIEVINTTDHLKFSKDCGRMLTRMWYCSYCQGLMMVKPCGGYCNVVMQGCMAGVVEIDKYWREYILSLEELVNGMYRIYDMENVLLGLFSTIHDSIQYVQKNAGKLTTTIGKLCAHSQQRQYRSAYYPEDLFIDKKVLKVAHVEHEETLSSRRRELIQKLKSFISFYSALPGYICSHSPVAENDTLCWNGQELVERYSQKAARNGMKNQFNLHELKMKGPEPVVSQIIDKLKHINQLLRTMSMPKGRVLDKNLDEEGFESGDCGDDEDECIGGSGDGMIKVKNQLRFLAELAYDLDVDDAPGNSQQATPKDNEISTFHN

Binder: TAACGCTGACCTTAGCTGGATTTTACATGTTCCA (ssDNA, 5'-NH2) [GPC3Apt]
- binding result: binds

From article PMC10004744, “H-rGO-Pd NPs Nanozyme Enhanced Silver Deposition Strategy for Electrochemical Detection of Glypican-3”
